Publication PMC5159797, “Phosphorylation of SKAP by GSK3β ensures chromosome segregation by a temporal inhibition of Kif2b activity” (Scientific Reports, 2016)

Molecular target: T1, His-GSK3β (human, UniProt P49841 1-420)
T1 construct: GSK3β; the construct is not described further; The pull-down methods speak of His-tagged fusion proteins expressed in bacterial cells, the protein methods of insect cells; also called 6×His-GSK3β; His-tagged GSK3β; source: insect cells, purified (Ni-NTA agarose)
Assay: pull-down; GST fusion protein-bound sepharose beads incubated 2 h at 4 °C with purified MBP fusion proteins or His-tagged protein; PBS, 0.1% Triton X-100; anti-MBP or anti-His blot
Conditions: both partners purified

T1 sequence (P49841 whole entry, the tested form may be a part): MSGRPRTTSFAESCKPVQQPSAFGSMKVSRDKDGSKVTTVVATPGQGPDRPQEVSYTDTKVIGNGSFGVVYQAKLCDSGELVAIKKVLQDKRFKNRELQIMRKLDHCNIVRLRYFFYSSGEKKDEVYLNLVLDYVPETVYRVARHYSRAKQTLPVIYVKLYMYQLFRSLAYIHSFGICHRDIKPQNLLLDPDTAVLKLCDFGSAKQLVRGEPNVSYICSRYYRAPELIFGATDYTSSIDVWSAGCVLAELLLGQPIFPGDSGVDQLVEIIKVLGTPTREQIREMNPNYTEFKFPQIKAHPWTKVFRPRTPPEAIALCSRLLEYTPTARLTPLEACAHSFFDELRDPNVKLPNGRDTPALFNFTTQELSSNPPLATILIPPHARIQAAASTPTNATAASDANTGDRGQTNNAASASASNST

B1: GST-SKAP (natural protein, UniProt Q9Y448 1-316, looked up)
chain: MAAPEAPPLDRVFRTTWLSTECDSHPLPPSYRKFLFETQAADLAGGTTVAAGNLLNESEKDCGQDRRAPGVQPCRLVTMTSVVKTVYSLQPPSALSGGQPADTQTRATSKSLLPVRSKEVDVSKQLHSGGPENDVTKITKLRRENGQMKATDTATRRNVRKGYKPLSKQKSEEELKDKNQLLEAVNKQLHQKLTETQGELKDLTQKVELLEKFRDNCLAILESKGLDPALGSETLASRQESTTDHMDSMLLLETLQEELKLFNETAKKQMEELQALKVKLEMKEERVRFLEQQTLCNNQVNDLTTALKEMEQLLEM
notes: SKAP (small kinetochore-associated protein), full length, cloned into pGEX-5X-3; also called GST-tagged SKAP full length; GST-SKAP-WT; source: E. coli Rosetta (DE3), purified on glutathione-sepharose 4B
B1: binds.
